Data as given in patent US20240124586A1 (WUXI BIOLOGICS IRELAND, published 2024).

How the values were obtained:
[1] = target: FcγRIIIa (V176) (UniProt P08637 17-208); test: SPR (Biacore), receptor captured on anti-his chip, steady state model
Description: (§1) Antibody binding affinity to FcγRs was detected using Biacore T200 (or Biacore 8K). Each receptor was captured on an anti-his antibody immobilized CM5 sensor chip (GE). Antibodies at different concentrations were injected over the sensor chip at a flow rate of 30 uL/min for an association phase of 60 s, followed by 60 s dissociation. The chip was then regenerated by 10 mM glycine (pH 1.5) after each binding cycle.
(§2) The sensorgrams of blank surface and buffer channel were subtracted from the test sensorgrams. The experimental data was fitted by 1:1 model using Langmiur analysis (for FcγRI) or steady state model (for other receptors). A molecular weight of 150 KDa was used to calculate the molar concentration of antibodies.

[2] = target: FcγRIIIa (F176) (UniProt P08637 17-208); test: as above
Description: as §1, §2

[3] = target: T1, human CTLA-4 on engineered 293F cells (W316-293F.hPro1.FL) (human, UniProt P16410 36-223); test: FACS binding to human CTLA-4 engineered cells
T1 construct: whole, on cells; also called human CTLA-4 engineered cells; CTLA-4+ cells
Description: (§3) 3.16-fold titrated Abs with 1% BSA DPBS from 200 nM to 0.002 nM were added to the cells. Plates were incubated at 4° C. for 1 hour. After wash, […] 1:150 diluted PE-labeled goat anti-human antibody (Jackson 109-115-098) was added to each well and the plates were incubated at 4° C. for 1 hour. The binding of the antibodies onto the cells was tested by flow cytometry and the mean fluorescence intensity (MFI) was analyzed by FlowJo.

[4] = target: T2, hCTLA4.ECD.hFc (human); test: dual-binding ELISA (hCTLA4.ECD.hFc coated, detected with hPD-1-ECD.Biotin), sample kept 4 d in human serum at 37 C
T2 construct: ECD fused to a human Fc; not biotinylated; also called Human CTLA-4: W316-hPro1.ECD.hFc (in house)
Description: The antibodies were incubated in freshly isolated human serum at 37° C. On indicated time points, an aliquot of serum treated sample was removed from the incubator and snap frozen in liquid nitrogen, and then stored at −80° C. until ready for a dual-binding ELISA test. The frozen samples were quickly thawed immediately prior to the stability test. Briefly, plates were pre-coated with 0.5 μg/mL of hCTLA4.ECD.hFc (in house) at 4° C. overnight. After 1-hour blocking, the testing antibodies were added to the plates at various concentrations. The plates were incubated at ambient temperature for 1 hour. Following the incubation, the plates were washed three times with 300 μL per well of PBS containing 0.5% (v/v) Tween 20. Then 0.1 μg/ml hPD-1-ECD.Biotin was added to plates and the mixture was incubated for 1 hour. After washing the plates three times, Streptavidin-HRP (Lifetechnologies, #SNN1004) (1:20000 diluted) was added and incubated on the plates for 1 hour at room temperature. After washing six times with 300 μL per well of PBS containing 0.5% (v/v) Tween 20, 100 μL tetramethylbenzidine (TMB) substrate is added for the detection per well. The reaction was stopped after approximately 5 minutes by addition of 100 μL per well of 2 M HCl. The absorbance of the wells was measured at 450 nm with a multiwall plate reader (SpectraMax® M5e). […]

[5] = target: T3, human PD-1 on engineered CHO-S cells (W305-CHO-S.hPro1.C6) (human, UniProt Q15116 25-288); test: FACS binding to human PD-1 engineered cells
T3 construct: whole, on cells; also called human PD-1 engineered cells; PD-1+ cells
Description: as §3, with “Engineered human PD-1 expressing cells W305-CHO-S.hPro1.C6 were seeded at 1×10⁵ cells/well in U-bottom 96-well plates (COSTAR 3799). Antibodies with 3.16-fold” for “3.16-fold”, “titration in” for “titrated Abs with”, “The plates” for “Plates”, “1:125” for “1:150”

[6] = target: T4, ECD of human PD-1 (SPR analyte) (human, UniProt Q15116 25-170); test: SPR (Biacore), antibody captured as ligand on an anti-human IgG Fc chip, PD-1 ECD as analyte
T4 construct: extracellular domain; the SPR method only says ECD of PD-1; also called W305-hPro1.ECD.His
Description: SPR technology was used to measure the on-rate constant (ka) and off-rate constant (kd) of the antibodies to ECD of CTLA-4 or PD-1. The affinity constant (KD) was consequently determined.
Biacore T200, Series S Sensor Chip CM5, Amine Coupling Kit, and 10×HBS-EP were purchased from GE Healthcare. Goat anti-human IgG Fc antibody was purchased from Jackson ImmunoResearch Lab (catalog number 109-005-098). In immobilization step, the activation buffer was prepared by mixing 400 mM EDC and 100 mM NHS immediately prior to injection. The CM5 sensor chip was activated for 420 s with the activation buffer. 30 μg/mL of goat anti-human IgG Fcγ antibody in 10 mM NaAc (pH 4.5) was then injected to Fc1-Fc4 channels for 200 s at a flow rate of 5 μL/min. The chip was deactivated by 1 M ethanolamine-HCl (GE). Then the antibodies were captured on the chip. Briefly, 4 μg/mL antibodies in running buffer (HBS-EP+) was injected individually to Fc3 channel for 30 s at a flow rate of […]. […] Regeneration buffer (10 mM Glycine pH 1.5) was injected at 10 μL min for 30 s following every dissociation phase.

[7] = target: T3, human PD-1 on engineered CHO-S cells …; test: FACS competition: blocks human PD-L1 protein (W315-hPro1.ECD.mFc) binding to human PD-1 engineered cells
Description: In order to test whether the bispecific antibodies could block hPD-L1 binding to hPD-1 protein, a competitive FACS was conducted. […] Plates were incubated at 4° C. for 1 hour. After wash, the binding of W315-hPro1.ECD.mFc to cell expressive human PD-1 was detected by FITC-labeled goat anti-mouse antibody (abcam 98716 1:125). The competition binding of antibodies to the cells was tested by flow cytometry and the mean fluorescence intensity (MFI) was analyzed by FlowJo.

T4 sequence (Q15116 25-170): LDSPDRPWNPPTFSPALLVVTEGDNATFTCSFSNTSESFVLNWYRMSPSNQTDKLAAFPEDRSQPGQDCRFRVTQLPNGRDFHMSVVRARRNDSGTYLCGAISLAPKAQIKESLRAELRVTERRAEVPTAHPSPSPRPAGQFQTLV
T3 sequence (Q15116 25-288, change not shown): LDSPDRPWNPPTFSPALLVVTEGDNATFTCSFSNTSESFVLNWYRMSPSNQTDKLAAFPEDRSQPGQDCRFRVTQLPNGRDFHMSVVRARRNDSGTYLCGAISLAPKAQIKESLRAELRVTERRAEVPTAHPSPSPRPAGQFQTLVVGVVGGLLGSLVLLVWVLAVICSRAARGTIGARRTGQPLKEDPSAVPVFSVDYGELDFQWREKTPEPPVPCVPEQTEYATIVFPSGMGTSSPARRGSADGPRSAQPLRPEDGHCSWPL
T2 sequence (P16410 36-161): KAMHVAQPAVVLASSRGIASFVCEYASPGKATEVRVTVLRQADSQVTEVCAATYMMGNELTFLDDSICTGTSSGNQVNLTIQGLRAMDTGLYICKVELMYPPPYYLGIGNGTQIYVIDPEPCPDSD
FcγRIIIa (F176), sequence (P08637 17-208 limits assumed): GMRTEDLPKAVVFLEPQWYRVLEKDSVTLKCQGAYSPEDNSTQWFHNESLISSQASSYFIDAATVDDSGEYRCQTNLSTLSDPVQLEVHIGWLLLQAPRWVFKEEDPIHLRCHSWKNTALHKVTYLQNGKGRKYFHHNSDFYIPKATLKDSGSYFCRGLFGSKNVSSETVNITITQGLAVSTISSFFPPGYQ
FcγRIIIa (V176), sequence (P08637 17-208 F176V limits assumed): as the sequence (P08637 17-208 limits assumed) above, with F160V counted along it
T1 sequence (P16410 36-223, change not shown): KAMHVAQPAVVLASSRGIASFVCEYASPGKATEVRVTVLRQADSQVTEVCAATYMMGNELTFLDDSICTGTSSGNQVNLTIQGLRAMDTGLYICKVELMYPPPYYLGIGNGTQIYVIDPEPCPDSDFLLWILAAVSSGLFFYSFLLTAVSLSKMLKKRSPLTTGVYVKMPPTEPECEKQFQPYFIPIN

Binder	Kd [1] [nM]	Kd [2] [nM]	EC50 [3] [nM]	EC50 [4] [nM]	EC50 [5] [nM]	koff [6] [s⁻¹]	kon [6] [M⁻¹ s⁻¹]	Inhibition % [7] [%]
W3438-T3U4.E17-1.uIgG4.SP, bispecific anti-CD3 x CD19 (bispecific antibody, also called E17-Design_2-QQQQ (IgG4); E17-IgG4; copies: 1 + 1 + 1 + 1) heavy 1: QVQLVQSGAEVKKPGSSVKVSCKASGFAFTDYYIHWVRQAPGQGLEWMGWISPGNVNTKYNENFKGRVTITADKSTSTAYMELSSLRSEDTAVYYCARDGYSLYYFDYWGQGTLVTVLEDLKNVFPPEVAVFEPSEAEISHTQKATLVCLATGFYPDHVELSWWVNGKEVHSGVCTDPQPLKEQPALQDSRYALSSRLRVSATFWQNPRNHFRCQVQFYGLSENDEWTQDRAKPVTQIVSAEAWGRYGPPCPPCPAPEFLGGPSVFLFPPKPKDTLMISRTPEVTCVVVDVSQEDPEVQFNWYVDGVEVHNAKTKPREEQFNSTYRVVSVLTVLHQDWLNGKEYKCKVSNKGLPSSIEKTISKAKGQPREPQVYTLPPCQEEMTKNQVSLWCLVKGFYPSDIAVEWESNGQPENNYKTTPPVLDSDGSFFLYSRLTVDKSRWQEGNVFSCSVMHEALHNHYTQKSLSLSLGK light 1: DIVMTQSPDSLAVSLGERATINCKSSQSLLNSRTRKNYLAWYQQKPGQPPKLLIYWASTRQSGVPDRFSGSGSGTDFTLTISSLQAEDVAVYYCTQSHTLRTFGGGTKVEIKPDIQNPDPAVYQLRDSKSSDKSVCLFTDFDSQTQVSQSKDSDVYITDKCVLDMRSMDFKSNSAVAWSQKSDFACANAFQNSIIPEDTFFPSPESS heavy 2: QMQLVQSGPEVKKPGTSVKVSCKASGYAFTSYNMYWVRQARGQRLEWIGYIDPYNGDTTYNQKFKGRVTITRDMSTSTAYMELSSLRSEDTAVYYCLTTAYAMDYWGQGTLVTVSSASTKGPSVFPLAPCSRSTSESTAALGCLVKDYFPEPVTVSWNSGALTSGVHTFPAVLQSSGLYSLSSVVTVPSSSLGTKTYTCNVDHKPSNTKVDKRVESKYGPPCPPCPAPEFLGGPSVFLFPPKPKDTLMISRTPEVTCVVVDVSQEDPEVQFNWYVDGVEVHNAKTKPREEQFNSTYRVVSVLTVLHQDWLNGKEYKCKVSNKGLPSSIEKTISKAKGQPREPQVCTLPPSQEEMTKNQVSLSCAVKGFYPSDIAVEWESNGQPENNYKTTPPVLDSDGSFFLVSRLTVDKSRWQEGNVFSCSVMHEALHNHYTQKSLSLSLGK light 2: DIQLTQSPSFLSASVGDRVTITCSASSTVNYMHWYQQKPGKAPKLLIYSTSNLASGVPSRFSGSGSGTEFTLTISSLQPEDFATYYCHQWSSYPYTFGQGTKLEIKRTVAAPSVFIFPPSDEQLKSGTASVVCLLNNFYPREAKVQWKVDNALQSGNSQESVTEQDSKDSTYSLSSTLTLSKADYEKHKVYACEVTHQGLSSPVTKSFNRGEC	14000	29300	–	–	–	–	–	–
W3248-U6T5.G25-1.uIgG4.SP, bispecific anti-PD-1 x CTLA-4 (bispecific antibody, IgG4 (S228P); also called WBP3248-U6T5.G25-1-uIgG4.SP; U6T5.G25.IgG4) heavy: not shown light 1: SYELTQPLSVSVALGQTARITCGGDNIGNKDVHWYQQKPGQAPVLVIYRDSNRPSGIPEGFSGSNSGNTATLTISRAQAGDEADYYCQVWDSIWVFGGGTKLTVLPDIQNPDPAVYQLRDSKSSDKSVCLFTDFDSQTQVSQSKDSDVYITDKCVLDMRSMDFKSNSAVAWSQKSDFACANAFQNSIIPEDTFFPSPESS light 2: EIVLTQSPDFQSVTPKEKVTITCSANSALSYMYWYQQKPDQSPKLWVHGTSNLASGVPSRFSGSGSGTDFTLTINSLEAEDAATYYCHHWSNTQWTFGGGTKVEIKRTVAAPSVFIFPPSDEQLKSGTASVVCLLNNFYPREAKVQWKVDNALQSGNSQESVTEQDSKDSTYSLSSTLTLSKADYEKHKVYACEVTHQGLSSPVTKSFNRGEC	–	–	3.17	0.0944	1.18	0.000844	642000	94.4
W3248-U6T1.G25R-1.uIgG4.SP, bispecific anti-PD-1 x CTLA-4 (bispecific antibody, IgG4 (S228P); also called U6T1.G25R.IgG4) heavy: EVQLLESGGGLVQPGGSLRLSCAASGFTFSSHAMSWVRQAPGKGLEWVSTITGGGGSIYYADSVKGRFTISRDNSKNTLYLQMNSLRAEDTAVYYCAKNRAGEGYFDYWGQGTLVTVSSASTKGPSVFPLAPCSRSTSESTAALGCLVKDYFPEPVTVSWNSGALTSGVHTFPAVLQSSGLYSLSSVVTVPSSSLGTKTYTCNVDHKPSNTKVDKRVGGGGSGGGGSQVQLVESGGGVVQPGRSLRLSCAASGFTFSSYTMHWVRQAPGKGLEWVTFISYDGNNKYYADSVKGRFTISRDNSKNTLYLQMNSLRAEDTAIYYCARTGWLGPFDYWGQGTLVTVLEDLKNVFPPEVAVFEPSEAEISHTQKATLVCLATGFYPDHVELSWWVNGKEVHSGVCTDPQPLKEQPALQDSRYALSSRLRVSATFWQNPRNHFRCQVQFYGLSENDEWTQDRAKPVTQIVSAEAWGRYGPPCPPCPAPEFLGGPSVFLFPPKPKDTLMISRTPEVTCVVVDVSQEDPEVQFNWYVDGVEVHNAKTKPREEQFNSTYRVVSVLTVLHQDWLNGKEYKCKVSNKGLPSSIEKTISKAKGQPREPQVYTLPPSQEEMTKNQVSLTCLVKGFYPSDIAVEWESNGQPENNYKTTPPVLDSDGSFFLYSRLTVDKSRWQEGNVFSCSVMHEALHNHYTQKSLSLSLG light 1: SYELTQPLSVSVALGQTARITCGGDNIGNKDVHWYQQKPGQAPVLVIYRDSNRPSGIPEGFSGSNSGNTATLTISRAQAGDEADYYCQVWDSIWVFGGGTKLTVLGQPKAAPSVTLFPPSSEELQANKATLVCLISDFYPGAVTVAWKADSSPVKAGVETTTPSKQSNNKYAASSYLSLTPEQWKSHKSYSCQVTHEGSTVEKTVAPTECS light 2: not shown	–	–	–	0.141	0.948	0.000675	542000	98.6
